Data on 41 sequences can be found in the nanobody polyreactivity screen of Harvey et al. (2022).

This data set in a line: yeast display, Sf9 membrane polyspecificity reagent, FACS + sequencing; frameworks hold sequencing errors. In short, it runs like this: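 A synthetic nanobody library was expressed on Saccharomyces cerevisiae BJ5465 by galactose induction for 36–48 hours. The library was stained for 1 hour at 4 °C with 10% biotinylated, detergent-solubilized Sf9 membrane reagent and enriched with streptavidin microbeads before FACS. Low and high (top ~1%) gates were set on anti-HA fluorescence for expression and streptavidin fluorescence for reagent binding, and each polyreactivity label reflects the gate of origin.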
With “QVQLVESGGGLVQAGGSLRLSCAASGSTFVIYGMGWYRQAPGKERELVADITWIGGSTYYADSVKGRFTISRDNAKNTVYLQMNSLKPEDTAVYYCAADAAYLYLYNWYDTEDDYWGQGTQVTVSS”, the “polyreactivity (PSR sort gate)” value is reported as “low polyreactivity”.
With “QVQLVESGGGLVQAGGSLRLSCAASGSTFVIYTMGGSRQAPGKERELVAAISWSGGITRYADSVKGRFTISRDIAKNTVYLQMNSLKPEDTAVYYCNASQWPSRFDYWGQGTQVSVSS” the entry was “low polyreactivity”; with “QVQLVESGGGLVQAGGSLRLSCAASGSTFVKNDMGWYRQAPGKERELVAANSGGSTNYADSVTGRFTISRDNAKNTVYLQMNSLKPEDTAVYYCNAAVITKYAGRGGRPTGRMYYWGQGTQVTVSS”, “low polyreactivity”.
Then “QVQLVESGGGLVQAGGSLRLSCAASGSTFVKYAMGWYRQAPGKERELVAAIDSSGGSTYYADSVKGRFTISRDNAKNTVYLQMNSLKAEDTAVYYCAAPRGNRLKGLEGYYWGQGTQVTVSS”, with “high polyreactivity”.
In the case of “QVQLVESGGGLVQAGGSLRLSCAASGSTFVKYAMGWYRQAPGKERELVAAISGYSGRTYYADSVKGRFTISRDNAKNTVYLQMNSLKPEDTAVYYCAAEWDDGRSWYWYYLVGFEYWGQGTQVTVSS”, the “polyreactivity (PSR sort gate)” value is on record as “high polyreactivity”.
As to “QVQLVESGGGLVQAGGSLRLSCAASGSTFVLYAMGWYRQAPGKERELVAAITKRGGNTYYADSVKGRFTISRDNAKNTVYLQMNSLKPEDTAVYYCAADHVRSPFDSWGQGTQVTVSS”, the “polyreactivity (PSR sort gate)” value is “low polyreactivity”.
With “QVQLVESGGGLVQAGGSLRLSCAASGSTFVPNAMGWYRQAPGKEREFVAAIRVSCDNTYYADSVKGRFTISRDNAKNTDYLQMNSLKPEDTAVYYCAATGTVLGSVDYWGQGSQVTVSS” the entry was “low polyreactivity”; with “QVQLVESGGGLVQAGGSLRLSCAASGSTFVPNAMGWYRQAPGKERELVAGISWSGGGTSYADSVKGRFTISRDNAKNTVYLQMNSLKPEDTAVYYCAVVGYEQNEYDYWGQGTQVTVSS”, “low polyreactivity”.
Then “QVQLVESGGGLVQAGGSLRLSCAASGSTFVPYAMGWYRQAPGKERELVASITYSGGSTSYADSVKGRVTISRDTAKNTVYLQMNSLKPEDTAVNYCAAVPWVVYSGYDYWGQGTQVTVSS”, with “low polyreactivity”; and “QVQLVESGGGLVQAGGSLRLSCAASGSTFVPYTMGWYRQAPGKERELVAAISGSGGTDYADSVKGRFTISRDNAKNTVYLQMNSLKPEDTAVYYCATDGLDFWFIYDYWGQGTHVTVSS”, with “low polyreactivity”; and “QVQLVESGGGLVQAGGSLRLSCAASGSTFVQYAMGWYRQAPGKERELVAAISGSGGRTYYADSVKGRFTLSRDNAKNTVYSHMNSLKPEDTAVYYCAAAYNTDFYYWGQGTQVTVSS”, with “high polyreactivity”.
Then “QVQLVESGGGLVQAGGSLRLSCAASGSTFVRNAMGWYRQAPGKEREFVASISSTSGRTYYADSVKGRFTISRDNAKNTVYLQMNRLKPEDTAVYYCAADVPPKYRHRYTLYDYWGQGTQVTVSS”, with “low polyreactivity”; and “QVQLVESGGGLVQAGGSLRLSCAASGSTFVRNAMGWYRQAPGKERELVAAISRSGGRTYYADSVKGRFTISRDNAKNTVYLQMNSLKPEDTAVYYCAKKRSKPISFDYWGQGTQVTVSS”, with “high polyreactivity”.
With “QVQLVESGGGLVQAGGSLRLSCAASGSTFVRNAMGWYRQAPGKERELVAAITSSGGSTYYADSVKGRFTISRDNAKNTVYLQMNSLKPEDTAVYYCAKRRYYRYDYWGQGTQVTVSS”, the “polyreactivity (PSR sort gate)” value is listed as “low polyreactivity”.
Then “QVQLVESGGGLVQAGGSLRLSCAASGSTFVRNAMGWYRQAPGKERELVAAITSSGGSTYYADSVKGRFTISRDNAMKTVYLQMNSLKPEDTAVYYCNAELGSDTANYDYWGQGTQVTVSS”, with “low polyreactivity”; and “QVQLVESGGGLVQAGGSLRLSCAASGSTFVRYAKGWYRQAPGKERELVAGISRRSGRTYYADSVKGRFTISRDNAKNTVYLQMNSLKPEDTAVYYCAARGIGGYEYWGQGTQVTVSS”, with “high polyreactivity”.
With “QVQLVESGGGLVQAGGSLRLSCAASGSTFVRYAMGWYRQAPGKERELVAAIDGGGTTKYADSVKGRFTISRDNAKNTVYLQMNSLKPEDTSVYYCAADQVWGYDSWGQGTQVTVSS” the entry was “low polyreactivity”.
“QVQLVESGGGLVQAGGSLRLSCAASGSTFVRYAMGWYRQAPGKERELVAAISGSGGRTYYADSVKGRFTISRDNAKNTVYLQMYSLKPEDTAVYYCATSTAGGRQTVSQYRYYWGQGTQVTVSS”: the “polyreactivity (PSR sort gate)” value is reported as “high polyreactivity”.
Then “QVQLVESGGGLVQAGGSLRLSCAASGSTFVRYAMGWYRQAPGKERELVAAISSGGSRTYYADSVKGRFTISRDNAKNTVYLQMNSLKPEDTAVYYCATVSTYYHYRRYDYWGQGTQVTVSS”, with “high polyreactivity”; and “QVQLVESGGGLVQAGGSLRLSCAASGSTFVRYDMGWYRQAPGKERELVADISWSGVSTYADSVKGRFTISRDNAKNTVYLQMNSLKPEDTAVYYCAKDSDLYQRGGYYWGQGTQVTVSS”, with “low polyreactivity”.
Then “QVQLVESGGGLVQAGGSLRLSCAASGSTFVSNAMGWYRPAPGKERELVASISQSGGGTDYADSVKGRFTISRDNAKNTVYLQMNSLKPEDTAVYYCAADRVPVQAPYDYWGQGTQVTVSS”, with “high polyreactivity”; and “QVQLVESGGGLVQAGGSLRLSCAASGSTFVSNAMGWYRQAPGKERELVATITTSGGSTYYADSVKGRFTISRDNAKNTVYLQMNSLKPEDTAVYYCNADYDFNFIDWVYFLYDYWGQGTQVTVSS”, with “low polyreactivity”.
Then “QVQLVESGGGLVQAGGSLRLSCAASGSTFVSNAMGWYSQAPGKERELVAAISSSDDSTYYADSVKGRFTLSRDKAKNTVYLQMISLKPEDTAVYYCAAESDSDQHDGDYWGQGTQVTVSS”, with “low polyreactivity”.
As to “QVQLVESGGGLVQAGGSLRLSCAASGSTFVSYAMGWSRQAPGKERELVAAISISDSSTYYADSVKGRFTISRDNAKNTVFLQMNSLKPEDTAVYYCNRYDYWGQGTQVTVSS”, the “polyreactivity (PSR sort gate)” value was “low polyreactivity”.
Regarding “QVQLVESGGGLVQAGGSLRLSCAASGSTFVSYAMGWYRQAPGKEREFVAAITWSGGSTYYADSVKGRFTISRDNAKNTVYLQMNSLKPEDTAVYDCAAATYRQQWHYYWGQGTQVTVSS”, the “polyreactivity (PSR sort gate)” value was “high polyreactivity”.
With “QVQLVESGGGLVQAGGSLRLSCAASGSTFVSYAMGWYRQAPGKERELVAAIRTTSGSTYYADSVKGRFTISRDNAKNTVYLQMNSLKPEDTAVYYCAAAGRGPSFRRYDYWGQGTQVTVSS” the entry was “high polyreactivity”; with “QVQLVESGGGLVQAGGSLRLSCAASGSTFVSYAMGWYRQAPGKERELVAAISISDSSTYYADSVKGRFTISRDNAKKTVYLQMNSLKPEDTAVYYCNRYDYWGQGTQVTVSS”, “low polyreactivity”.
Then “QVQLVESGGGLVQAGGSLRLSCAASGSTFVSYAMGWYRQAPGKERELVAAISTSGGTTYYADSVKGRFTISRDNAKNTVYLQMNSLKPEDTAVYYCAAYDFKYKGYDYWGQGTQVTVSS”, with “high polyreactivity”; and “QVQLVESGGGLVQAGGSLRLSCAASGSTFVSYAMGWYRQAPGKEREMVASISSGDSTYADSVKGRFTISRDNAKNTVYLQMNSLKREDTAVYYCNVGNEGSYGFPVTYDYWGQGSQVTVSS”, with “low polyreactivity”; and “QVQLVESGGGLVQAGGSLRLSCAASGSTFVSYVMGWYRQAHGKERELVATSSGRAGRTYYADSVKGRFTISRDNAKNTVSLQMNSLKPEDTAVYYCNAGQWRYPGLYYYWGQATQVTVSS”, with “high polyreactivity”.
With “QVQLVESGGGLVQAGGSLRLSCAASGSTFVTNAMGWYRQAPGKERELVAAITSGAGTYYADSVKGRFTISRDNAKNTVYLQMNSLKPEDTAVYYCAARRYYSRGRYRFGYWGQGTQVTVSS” the entry was “high polyreactivity”.
Consider “QVQLVESGGGLVQAGGSLRLSCAASGSTFVTNDMGWYRQAPAKERELVAAISSGTSTNYADSVKGRFTISRDNAKNTVYLQMNSLKPEDTAVYYCAADSLKRYDYWGHGTQVTVSS”, for which the “polyreactivity (PSR sort gate)” value is on record as “low polyreactivity”.
“QVQLVESGGGLVQAGGSLRLSCAASGSTFVTYAMGWYRQAPGKERELVAAIDSGGNTNYADSVKGRFTISRDNAKNTVYLQMNSLKPEDTAVYYCAVRPYELNRLDDQPGGDDYWGQGTQVTVSS”: the “polyreactivity (PSR sort gate)” value is reported as “low polyreactivity”.
For “QVQLVESGGGLVQAGGSLRLSCAASGSTFVTYAMGWYRQAPGKERELVATITTSGGSTYYADSVKGRFTISRDNAKNTVYLQMNSLKPEDTAVYYCAADYYSNYSRFDYWGQGTQVTVSS”, the “polyreactivity (PSR sort gate)” value is given as “low polyreactivity”.
Then “QVQLVESGGGLVQAGGSLRLSCAASGSTFVVNAMGWYRQAPGKERELVAAIRGSAGSTYYADSVKGRFTISRDNAKNTVYLQMNSLKPEDTAVYYCAAYYRRYKSKYDYWGQGTQVTVSS”, with “high polyreactivity”; and “QVQLVESGGGLVQAGGSLRLSCAASGSTFVVNAMGWYRQAPGKERELVAAIRIIGGSTYYADSVKGRFTISRDNAKNTVYLQMKSLKPEDTAVYYCVYSGYFPHQSKMDYWGQGTQVTVSS”, with “low polyreactivity”; and “QVQLVESGGGLVQAGGSLRLSCAASGSTFVVNAMGWYRQAPGKERELVAAITQSGGSTFYADSVKGRFTISRDNAKNTVYLQINSLKPEDTAVYYWGQCTQVTVSS”, with “low polyreactivity”.
Then “QVQLVESGGGLVQAGGSLRLSCAASGSTFVVYAMGWSRQAPGKERELVAAISTSDTSTYYADSVKGRFTISRDNAKNTVYLQMNSLKPEDTAVYYCAADGTYVYINEYEYWGQGTQVTVSS”, with “low polyreactivity”.
On to “QVQLVESGGGLVQAGGSLRLSCAASGSTFVWNAMGWYRQAPGQERELVAAITWSGGSTYYADSVKGRFTISRDNAKNTVYLQMNSLIPEDTAVYYGNAGPVVRRWDAVGYDYWGQGTQVTVSS”, for which the “polyreactivity (PSR sort gate)” value is listed as “low polyreactivity”.
With “QVQLVESGGGLVQAGGSLRLSCAASGSTFVYNAMGWYRQAPGKEREFVAVINWSGGRTYADSVKGRFTISRDNAKNTVYLQMNSLKPEDTAVYYCNARRRTGYRPAMDYWGQGTQVTVSS” the entry was “high polyreactivity”.
Regarding “QVQLVESGGGLVQAGGSLRLSCAASGSTFVYNAMGWYRQAPGKERELVAAIRTTGTGTYYADSVKGRFTISRDNAKNTVYLQMNSLKPEDTAVYYCATDYNYWKLDFGYWGQGTQVTVSS”, the “polyreactivity (PSR sort gate)” value is on record as “high polyreactivity”.
